Source: publication PMC6028546, “Control of mitotic chromosome condensation by the fission yeast transcription factor Zas1”

Tests used:
[1] = target: Zas1 (recombinant, from the short zas1 cDNA ORF) (S. pombe); experiment: SEC-MALS; analytical SEC coupled to multiangle light scattering of purified Zas1; two independent chromatography runs
[2] = target: T1, Zas1 (short cDNA ORF, two zinc fingers) (Schizosaccharomyces pombe, UniProt Q9UTS5-2 1-845); experiment: EMSA; 20 uM ZnCl2, 5 mM MgCl2; EMSA: 10 mM Tris-HCl pH 8.0, 125 mM NaCl, 5 mM MgCl2, 20 uM ZnCl2; 400 nM DNA, 0/200/400/800 nM Zas1; 90 min on ice; 1.8% agarose, Tris-acetate pH 8.7, 6 C; conditions: protein: recombinant; chain copies: 2; label: 5' 6-FAM on strand 1; blunt
T1 sequence: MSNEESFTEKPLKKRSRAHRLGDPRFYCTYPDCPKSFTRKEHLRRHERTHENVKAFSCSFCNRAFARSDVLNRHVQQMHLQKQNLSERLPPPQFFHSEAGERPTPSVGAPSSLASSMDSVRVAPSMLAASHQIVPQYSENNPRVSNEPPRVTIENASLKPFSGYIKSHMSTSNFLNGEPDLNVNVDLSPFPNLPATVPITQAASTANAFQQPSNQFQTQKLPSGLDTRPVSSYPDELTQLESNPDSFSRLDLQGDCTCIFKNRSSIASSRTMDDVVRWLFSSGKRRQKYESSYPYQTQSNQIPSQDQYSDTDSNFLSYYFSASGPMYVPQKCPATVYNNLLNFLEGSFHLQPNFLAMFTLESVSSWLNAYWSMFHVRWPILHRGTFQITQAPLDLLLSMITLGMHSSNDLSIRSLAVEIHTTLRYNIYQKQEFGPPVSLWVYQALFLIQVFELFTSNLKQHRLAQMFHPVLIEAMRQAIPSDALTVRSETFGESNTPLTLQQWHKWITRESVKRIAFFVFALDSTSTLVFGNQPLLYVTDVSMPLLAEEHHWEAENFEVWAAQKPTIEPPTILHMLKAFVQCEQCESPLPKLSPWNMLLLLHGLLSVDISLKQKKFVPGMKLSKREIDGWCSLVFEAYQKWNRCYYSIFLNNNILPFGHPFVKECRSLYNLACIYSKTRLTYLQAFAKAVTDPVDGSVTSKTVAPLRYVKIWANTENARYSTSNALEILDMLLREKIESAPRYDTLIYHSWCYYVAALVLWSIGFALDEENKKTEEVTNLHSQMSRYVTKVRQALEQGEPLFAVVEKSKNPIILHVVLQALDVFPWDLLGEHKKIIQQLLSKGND

## Zas1 (recombinant, from the short zas1 cDNA ORF) (natural protein)
[1]
  stoichiometry N: 2

B1: Pcnd1 (dsDNA)
DNA 1: AATGGACCCCCACACAGGACATATAGGTGGGGTTATTGT
DNA 2: ACAATAACCCCACCTATATGTCCTGTGTGGGGGTCCATT
[2]
  binding result: binds

B2: Ppob1 (dsDNA)
DNA 1: AAAGCCCCCACGAAGGTCGTCTTTCCCCACATAGATTATT
DNA 2: AATAATCTATGTGGGGAAAGACGACCTTCGTGGGGGCTTT
[2]
  binding result: binds
